# Laboratory results reported in US20230190880A1, “Formulations of Human Parathyroid Hormone (PTH) and Methods for Producing Same” (Sichuan Luzhou Buchang BIO-Pharmaceutical Co., Ltd., priority 2020, published 2023).
# Experiment: Screening of pH and buffers: stability of liquid huPTH formulations by SEC-, RP- and CEX-HPLC
# Type: physicochemical
# Settings: accelerated stability at 25° C. and 37° C.; pH 4.0-9.0 buffers, 140 mM NaCl, 1 mg/mL huPTH
# Description: Recombinant huPTH (1 mg/mL) having the amino acid sequence set forth in SEQ ID NO: 2 was used as an active ingredient in the formulations. Table 1 provides a summary of the formulations that were tested in this example.
# The results of SEC-HPLC, RP-HPLC and CEX-HPLC performed at 25° C. and 37° C. are depicted in FIGS. 4-6. The results of SEC-HPLC and RP-HPLC performed at 4° C. are depicted in FIGS. 7-8.
smiles,measurement,value
CC[C@H](C)[C@H](NC(=O)[C@H](CCC(=O)O)NC(=O)[C@H](CO)NC(=O)[C@@H](NC(=O)[C@@H](N)CO)C(C)C)C(=O)N[C@@H](CCC(N)=O)C(=O)N[C@@H](CC(C)C)C(=O)N[C@@H](CCSC)C(=O)N[C@@H](Cc1cnc[nH]1)C(=O)N[C@@H](CC(N)=O)C(=O)N[C@@H](CC(C)C)C(=O)NCC(=O)N[C@@H](CCCCN)C(=O)N[C@@H](Cc1cnc[nH]1)C(=O)N[C@@H](CC(C)C)C(=O)N[C@@H](CC(N)=O)C(=O)N[C@@H](CO)C(=O)N[C@@H](CCSC)C(=O)N[C@@H](CCC(=O)O)C(=O)N[C@@H](CCCN=C(N)N)C(=O)N[C@H](C(=O)N[C@@H](CCC(=O)O)C(=O)N[C@@H](Cc1c[nH]c2ccccc12)C(=O)N[C@@H](CC(C)C)C(=O)N[C@@H](CCCN=C(N)N)C(=O)N[C@@H](CCCCN)C(=O)N[C@@H](CCCCN)C(=O)N[C@@H](CC(C)C)C(=O)N[C@@H](CCC(N)=O)C(=O)N[C@@H](CC(=O)O)C(=O)N[C@H](C(=O)N[C@@H](Cc1cnc[nH]1)C(=O)N[C@@H](CC(N)=O)C(=O)N[C@@H](Cc1ccccc1)C(=O)O)C(C)C)C(C)C [huPTH],stability profile as a function of pH,best stability profile at pH 5
